Source: ChEMBL document CHEMBL2074348, “Human neurons express the polyspecific cation transporter hOCT2, which translocates monoamine neurotransmitters, amantadine, and memantine” (Mol Pharmacol, 1998)
Where “and” joins values, the source holds several entries; their conditions need not be identical. Equal entries are not always repeated.

Experiments:
[1] = molecular target: T1, Solute carrier family 22 member 2 (Homo sapiens, UniProt O15244); experiment: TP_TRANSPORTER: inhibition of Dopamine uptake (Dopamine: 200 uM) in Xenopus laevis oocytes; type: functional, cell-based, Oocyte
T1 sequence (O15244 whole entry): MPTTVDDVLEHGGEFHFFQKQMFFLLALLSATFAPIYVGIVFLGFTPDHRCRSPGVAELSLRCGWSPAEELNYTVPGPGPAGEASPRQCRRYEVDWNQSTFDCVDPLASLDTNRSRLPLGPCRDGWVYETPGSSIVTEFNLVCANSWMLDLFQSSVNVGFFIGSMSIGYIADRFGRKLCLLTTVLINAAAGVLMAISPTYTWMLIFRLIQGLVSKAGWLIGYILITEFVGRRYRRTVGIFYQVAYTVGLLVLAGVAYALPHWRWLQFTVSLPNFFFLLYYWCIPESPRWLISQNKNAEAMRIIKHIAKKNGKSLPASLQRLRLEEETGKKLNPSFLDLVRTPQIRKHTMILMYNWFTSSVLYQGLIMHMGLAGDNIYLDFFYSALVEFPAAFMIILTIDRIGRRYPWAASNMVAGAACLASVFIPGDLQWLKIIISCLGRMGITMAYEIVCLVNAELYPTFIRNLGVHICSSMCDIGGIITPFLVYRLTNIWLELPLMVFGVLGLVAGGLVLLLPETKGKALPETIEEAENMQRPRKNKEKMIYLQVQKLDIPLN

[2] = molecular target: T1, Solute carrier family 22 member 2; experiment: TP_TRANSPORTER: uptake in OCT2-expressing HEK293 cells; type: functional, cell-based
[3] = substrate: NCCc1c[nH]c2ccc(O)cc12; experiment: (§1) TP_TRANSPORTER: uptake in Xenopus laevis oocytes; type: functional, cell-based, Oocyte
[4] = substrate: NC[C@H](O)c1ccc(O)c(O)c1; experiment: as §1; type: functional, cell-based, Oocyte
[5] = substrate: CC12CC3CC(C)(C1)CC(N)(C3)C2; experiment: (§2) TP_TRANSPORTER: uptake (electrogenesis) in Xenopus laevis oocytes; type: functional, cell-based, Oocyte
[6] = substrate: NC12CC3CC(CC(C3)C1)C2; experiment: as §2; type: functional, cell-based, Oocyte
[7] = substrate: NCCc1c[nH]cn1; experiment: cells, lysate or membranes named
[8] = substrate: NCCc1ccc(O)c(O)c1; experiment: cells, lysate or membranes named

Q: For NC12CC3CC(CC(C3)C1)C2 [AMANTADINE], which IC50 [1] is on record?
A: Its IC50 is 23 µM.

Q: With C[n+]1ccc(-c2ccccc2)cc1 as the molecule, how does the Km [2] read?
A: The Km was 16 µM.

B1: Solute carrier family 22 member 2 (Homo sapiens) (protein)
chain: MPTTVDDVLEHGGEFHFFQKQMFFLLALLSATFAPIYVGIVFLGFTPDHRCRSPGVAELSLRCGWSPAEELNYTVPGPGPAGEASPRQCRRYEVDWNQSTFDCVDPLASLDTNRSRLPLGPCRDGWVYETPGSSIVTEFNLVCANSWMLDLFQSSVNVGFFIGSMSIGYIADRFGRKLCLLTTVLINAAAGVLMAISPTYTWMLIFRLIQGLVSKAGWLIGYILITEFVGRRYRRTVGIFYQVAYTVGLLVLAGVAYALPHWRWLQFTVSLPNFFFLLYYWCIPESPRWLISQNKNAEAMRIIKHIAKKNGKSLPASLQRLRLEEETGKKLNPSFLDLVRTPQIRKHTMILMYNWFTSSVLYQGLIMHMGLAGDNIYLDFFYSALVEFPAAFMIILTIDRIGRRYPWAASNMVAGAACLASVFIPGDLQWLKIIISCLGRMGITMAYEIVCLVNAELYPTFIRNLGVHICSSMCDIGGIITPFLVYRLTNIWLELPLMVFGVLGLVAGGLVLLLPETKGKALPETIEEAENMQRPRKNKEKMIYLQVQKLDIPLN
Q: B1 was tested. Which Km [3] did it give?
A: The Km was 80 µM.

Q: What about the Km [4] of the same molecule?
A: Its Km is 1900 µM.

Q: What about the Km [5] of the same molecule?
A: Its Km is 34 µM.

Q: What about the Km [6] of the same molecule?
A: The Km was 27 µM.

Q: What about the Km [7] of the same molecule?
A: The Km was 1300 µM.

Q: What about the Km [8] of the same molecule?
A: The Km was 330 µM and 390 µM and 520 µM.
